Measured values as given in patent US20240175877A1 (GENERAL HOSPITAL, published 2024).

Columns and labels:
Ara h 2 [1] = target: T1, Ara h 2 (peanut, UniProt Q6PSU2 23-172, 4-hydroxyproline at positions 67, 74, and 86; biotinylated in the BLI assays); test: epitope bin summary
T1 construct: BLI: biotinylated (native) Ara h 2 on streptavidin sensors; also called conglutin-7; peanut allergen
T1 sequence: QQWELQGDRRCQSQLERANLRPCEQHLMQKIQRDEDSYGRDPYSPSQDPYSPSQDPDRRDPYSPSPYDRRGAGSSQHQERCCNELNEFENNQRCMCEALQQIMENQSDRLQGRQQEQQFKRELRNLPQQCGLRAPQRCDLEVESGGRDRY

Peptide_009 = target: T2, Peptide_009 (peanut); test: peptide microarray
T2 construct: also called peptide 9
T2 peptide: WELQGDRRCQSQLER
Procedure: (§1) The peptide mapping using microarrays was performed with 40 antibody samples diluted 1:1000 in blocking buffer (see below). Sample dilutions were incubated for 1 hour at 30° C. on multiwell microarray slides. The slides contained 21 individual mini-arrays (1 mini-array per sample dilution).
(§2) Subsequent to sample incubation, secondary fluorescently labeled anti-human-IgG antibody at 1 μg/ml was added into the corresponding wells and left to react for 1 hour.
(§3) Additional control incubations applying the secondary antibody only was performed in parallel on the microarray slides to assess false-positive binding to peptides.

Peptide_010 = target: T3, Peptide_010 (peanut); test: peptide microarray
T3 construct: also called peptide 10
T3 peptide: QGDRRCQSQLERANL
Procedure: as §1, §2, §3

Peptide_011 = target: T4, Peptide_011 (peanut); test: peptide microarray
T4 construct: also called peptide 11
T4 peptide: RRCQSQLERANLRPC
Procedure: as §1, §2, §3

Peptide_012 = target: T5, Peptide_012 (peanut); test: peptide microarray
T5 construct: also called peptide 12
T5 peptide: QSQLERANLRPCEQH
Procedure: as §1, §2, §3

Ara h 2 [2] = target: T1, Ara h 2; test: SPR, Biacore 3000
Procedure: Calculated equilibrium dissociative constants (K)) for antigen binding to anti-Ara h 2 antibodies was determined using a real-time surface plasmon resonance biosensor (Biacore 3000) assay.

Ara h 2 [3] = target: T1, Ara h 2; test: epitope summary

B1: 14FU2P1D6 (antibody, IgG1, V domains shown)
VH: ESGPGLVKPSETLSLTCTVSGDSISSYYWSWIRQPAGKGLEWIGRIFTSGSTNINPSLKSRVTMSVDTSKNQFSLQLGSVTAADTAIYYCAKHTRDFWSDDSRVHWYFNLWGRGTLVTVSS
VL: QSPGTLSLSPGERATLSCRASQSVSNNFLAWYQQQPGQAPSLLIYGASTRATGIPDRFSGSGSGTDFTLTISRLEPEDFAVYFCQQYDSSPYTFGQGTKLEIK
notes: recombinant IgG1; also called 14FU1P1D6
binding result (Ara h 2 [1]): binds

B2: 15FU1P3A1 (antibody, IgG1, V domains shown)
VH: LVQSGAEVKKPGASVKVSCKASGYTFTRYDINWVRQATGQGLEWMGWMNPKSGETGYAQKFHGRVIMSWNTSISTAYMELSSLRSEDTAVYYCTRGVDSGVWGQGTTVTVSS
VL: TQSPDSLAVSLGERATINCKSSQSVLDSSNNKKFLAWFQQKPGQRPKLLIYWASTRESGVPDRFTGSGSGTDFTLTISSLQAEDVAVYYCQQYYSPPHTFGQGTKLEIK
notes: recombinant IgG1
binding result (Peptide_009): binds | binding result (Peptide_010): binds | binding result (Peptide_011): binds | binding result (Peptide_012): binds | binding result (Ara h 2 [1]): binds

B3: 13BU2T4 (antibody, IgG1, V domains shown)
VH: ESGPRLVKPSETLSLTCIVSGDSISSYYWGWIRQPAGRGLEWIGRIFTSGSTTYNPSLKSRVSMSVETSKNQFSLTLTSVTAADTAVYFCARDRRALSSDGNWYWYFDLWGRGTLVAVSS
VL: TQSPSSLSASVGDRVTITCRASQTITRNLNWYQQKSGEAPKLLIYGASILQSGVPSRFTGSGSGTDFTLTISNLQPEDFASYSCQQSDNTPRTFGQGTKVEIK
notes: recombinant IgG1
Kd (Ara h 2 [2]): 0.00143 nM

B4: 23BU2P3 (antibody, IgG1, V domains shown)
VH: QVQLVESGGGLVQPGRSLRLSCAASGFIFADYTMHWVRQSPGKDLEWVSRISWNSGGVEYADSVKGRFTISRDNAKNSLYLQMNSLRVEDTALYYCVKDNGYRAFDLWGLGTMVTVSS
VL: DVVMTQSPVSLPVTPGEPASISCRSSQSLVHSNGYNYLDWYLQKPGQSPQLLIYMGSNRASGVPDRFSGSGSGTDFTLKISRVEAEDVGVYYCMQSLQTWTFGQGTKVEIK
notes: recombinant IgG1
binding result (Ara h 2 [3]): binds

B5: 23BU2P31 (antibody, IgG1, V domains shown)
VH: QVQLQESGPGLVEPSETLSLTCTVSGDPFTSYYWTWIRQPAGKGLEWLGRIFTTGSTSYNPSLKSRVTMSVDTSKSQFSLKLTAVTAADTAVYYCARVRRYCSGGRCYPYFYMDVWGKGTTVIVSS
VL: DIRETQSPSTLSASVGDRVTITCRASESISSWLAWYQQKPGKAPKLLIYEASTLETGVPSRFSGSGSGTEFTLTIRSLQPDDFATYYCQHYNSDSLTFGGGTKVEIK
notes: recombinant IgG1
binding result (Ara h 2 [3]): binds

B6: 22BU2S4 (antibody, IgG1, V domains shown)
VH: RCKLQESGPGLVKPSESLSLTCNVSGMSISSYYWSWIRQPAGKGLEWIGRIFTTGSTKDNPSLKSRVTMSVDTSRNQFSLTLTSVTAADTAVYYCARLRRVVVPRVSWYFDLWGHGTLVTVSS
VL: TQSPSSLSASVGDRVTITCQASQDISKSLNWYHQKPGKAPTVLIYDASNLETGVPSRFSGSGSGTEFTFTISSLQSEDFGTYYCQQYDNVPMYTFGQGTKVETK
notes: recombinant IgG1
binding result (Ara h 2 [3]): binds

B7: 15FU1P1A3 (antibody, V domains shown)
VH: QSGAEVKKPGASVKISCKASGYTFTTYAMHWVRQAPGQRLEWMGGINAGNGNPKYSEKFQDRVTITRDTSATTAYMELSSLRSEDTAVYYCARDAAGTRGNWLDPWGQGTLVTVSS
VL: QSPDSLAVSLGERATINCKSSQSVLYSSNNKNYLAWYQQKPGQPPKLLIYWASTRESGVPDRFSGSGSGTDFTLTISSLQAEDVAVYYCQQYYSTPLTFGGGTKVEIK
notes: recombinant IgG1
binding result (Ara h 2 [1]): binds

B8: 13FU1P1A4 (antibody, IgG1, V domains shown)
VH: VQLVESGGTLGQPGGSLRLSCTASGFTFNRFAINWVRQAPGKGLEWVAAISGTGAVTYYADSVEGRFSISRENSNNTVFLEMNNLRGEDTAVYFCAKDRTPVTNYYGMDVWGQGTTVTVSS
VL: TQSPSSLSASVGDRVIITCRGSQTIDNYLNWYQQKPGKAPRLLISAASSLQGGVPSRFSGSGYGTDFTLTISSLQPEDFATYYCQQTSSTPYTFGQGTKVEIK
notes: recombinant IgG1
binding result (Ara h 2 [1]): binds

B9: 11FUP1A2 (antibody, IgG1, V domains shown)
VH: ESGGAVVQPGGSLRLSCAASGFTVEDYTIHWVRQVPGKGLEWISLISWDGDRTAYTDSVKGRFTISRDNIKNSLYLLMNSLRTEDTALYYCVKDNGWRSFAYWGQGILVTVST
VL: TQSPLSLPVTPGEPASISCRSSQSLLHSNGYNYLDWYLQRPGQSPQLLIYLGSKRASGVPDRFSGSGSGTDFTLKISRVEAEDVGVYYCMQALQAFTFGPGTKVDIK
notes: recombinant IgG1
binding result (Ara h 2 [1]): binds

B10: 27FU1P3A4 (antibody, IgG1, V domains shown)
VH: ESGGGLVQPGGSLRLSCVASGFPFDDFVFAWVRQAPGGGLEWVSAISSRRTNTFYADSVKGRFTISRDNTRKTVNLQMNSLRGEDTAVYYCAKGETRYLEWIIQSSGFDYWGPGTLVAVSS
VL: QSPSSLSASVGERVTITCRANQTISTYLNWYQQKVGKAPKSLIRAASSLESGVPSRFSGSGSGTDFTLTINSLQREDFATYYCQQTYNVPPTFGQGTRVELK
notes: recombinant IgG1
binding result (Ara h 2 [1]): binds

B11: 89BU7P1B10 (antibody, IgG1, V domains shown)
VH: QESGPGLVKPSETLSLTCTVSGGSIGRHYWSWIRQPPGKGLEWIAYIYDSGSTKYNPSLESRVTISEDTSQNQFSLKLTSVTAADTAIYYCARHNAPYGGNSDDYFEFWGPGTLVTVSS
VL: TQSPSSLSASVGDRVTITCRANETISDYLNWYQGKPGTAPKPLIYAASSLQSGVPSRFSGSGSETYFTLTISSLQPEDFATYYCQQSYSVPLTFGGGTKVESK
notes: recombinant IgG1
binding result (Ara h 2 [1]): binds

B12: 13BU2T3 (antibody, IgG1, V domains shown)
VH: GGGVVQPGTSLRLSCVASGFTFRDYSMHWVRQAPGKGLEWVSFIRFDGTTKDYRDSVKGRFIISRDDSKNTLYLQMTSLRVEDTALYYCAKDNGWRAFDHWGQGALVTVSS
VL: VMTQSPLSLPVTPGEAASISCRSSQSLLHRNGYIYLDWYLQRPGQSPQLLISFVSKRASGAPDRFSGSGSGTDFTLTISRVEAEDFGVYFCMQALETPWTFGPGTKLEIK
notes: recombinant IgG1
Kd (Ara h 2 [2]): 0.193 nM

B13: 13BU2T5 (antibody, V domains shown)
VH: QVQLQESGPGLVKPSETLSLTCTVSGGSMSSYYWGWIRQPAGRGLEWIGRIFTTGSTIYNASLNSRVSMSVDTSKNQFSLKLTSVTAADTALYFCVRDRRGRSHDSNWYWYFDLWGRGTLVTVSS
VL: RVIITCRASQTLSRNLNWYQQKPGEAPKLLIYGASTLQSGVPSRFTGSGSGTDFTLIISGLQPEDFATYYCQQSDNTPRTFGQGT
Kd (Ara h 2 [2]): 0.112 nM

B14: 6BU4P2B1 (antibody, IgG1, V domains shown)
VH: VESGGGLIQPGRSLRLSCAVSGFSFDDYAMYWVRQVPGKGLEWVSGISWNSGTIEYADSVKGRFTISRDNAKKSLFLEMNSLRSEDTAIYYCAKGTGWELVSALENWGQGTVVTVSS
VL: QSPSSLSASVGNKVTITCRASQTISDYLNWYQQKPGKAPKLLIYAASSLQSAVPSRFAGSGSGTEFTLTISSLQPEDFATYYCQQSYSPPFTFGPGTKVDIK
notes: recombinant IgG1
binding result (Ara h 2 [1]): binds

B15: 23BU2P34 (antibody, IgG1, V domains shown)
VH: QVQLVESGGLVVQPGGSLRLSCEASGFTFDDYTMHWVRQSPQKGLEWVSLIRWDGSRTEYADSVKGRFTISRDNSKNSLYLQMNTLRADDSAFYFCVKDGGLRYFDSWGQGTLVTVSS
VL: EIVMTQSPLSLPVTPGEPASISCRSSQSLLHSNGIHYLDWYLQKPGQSPQLLIYLGSKRASGVPDRFSGSGSGTDFTLKISRVEAEDVGVYYCMQSLQTFTFGPGTKVDIK
notes: recombinant IgG1
binding result (Ara h 2 [3]): binds
